Laboratory results: article PMC5861437

Tests used:
[1] = biological target: H.CglI H290A (H/H motif mutant) (Corynebacterium glutamicum); assay: SEC
[2] = biological target: H.CglI R408A (Motif VI mutant) (Corynebacterium glutamicum); assay: SEC
[3] = biological target: H.CglI R379A (Motif V mutant) (Corynebacterium glutamicum); assay: SEC
[4] = biological target: H-subunit of the restriction endonuclease CglI (H.CglI), wild type (Corynebacterium glutamicum); assay: SEC + other: SAXS
[5] = biological target: H.CglI ΔL (a deletion of the residues 165–172), Loop 163–172 mutant (Corynebacterium glutamicum); assay: SEC
[6] = biological target: H.CglI L1 (V169A), Loop 163–172 mutant (Corynebacterium glutamicum); assay: SEC
[7] = biological target: H.CglI H282A (H/H motif mutant) (Corynebacterium glutamicum); assay: SEC
[8] = biological target: H.CglI Q405A (Motif VI mutant) (Corynebacterium glutamicum); assay: SEC
[9] = biological target: H.CglI H282A + H290A (H/H motif double mutant) (Corynebacterium glutamicum); assay: SEC

H.CglI H290A (H/H motif mutant) (natural protein)
stoichiometry N [1]: 2

H.CglI R408A (Motif VI mutant) (natural protein)
stoichiometry N [2]: 2

H.CglI R379A (Motif V mutant) (natural protein)
stoichiometry N [3]: 2

H-subunit of the restriction endonuclease CglI (H.CglI), wild type (natural protein)
stoichiometry N [4]: 2

H.CglI ΔL (a deletion of the residues 165–172), Loop 163–172 mutant (natural protein)
stoichiometry N [5]: 2

H.CglI L1 (V169A), Loop 163–172 mutant (natural protein)
stoichiometry N [6]: 2

H.CglI H282A (H/H motif mutant) (natural protein)
stoichiometry N [7]: 2

H.CglI Q405A (Motif VI mutant) (natural protein)
stoichiometry N [8]: 2

H.CglI H282A + H290A (H/H motif double mutant) (natural protein)
stoichiometry N [9]: 2
